{"source": "patent US20060281073A1", "molecular_target": "αv integrins on NIH3T3 cells (αvβ3 and αvβ5) (mouse) (UniProt P43406)", "sequence (P43406 whole entry)": "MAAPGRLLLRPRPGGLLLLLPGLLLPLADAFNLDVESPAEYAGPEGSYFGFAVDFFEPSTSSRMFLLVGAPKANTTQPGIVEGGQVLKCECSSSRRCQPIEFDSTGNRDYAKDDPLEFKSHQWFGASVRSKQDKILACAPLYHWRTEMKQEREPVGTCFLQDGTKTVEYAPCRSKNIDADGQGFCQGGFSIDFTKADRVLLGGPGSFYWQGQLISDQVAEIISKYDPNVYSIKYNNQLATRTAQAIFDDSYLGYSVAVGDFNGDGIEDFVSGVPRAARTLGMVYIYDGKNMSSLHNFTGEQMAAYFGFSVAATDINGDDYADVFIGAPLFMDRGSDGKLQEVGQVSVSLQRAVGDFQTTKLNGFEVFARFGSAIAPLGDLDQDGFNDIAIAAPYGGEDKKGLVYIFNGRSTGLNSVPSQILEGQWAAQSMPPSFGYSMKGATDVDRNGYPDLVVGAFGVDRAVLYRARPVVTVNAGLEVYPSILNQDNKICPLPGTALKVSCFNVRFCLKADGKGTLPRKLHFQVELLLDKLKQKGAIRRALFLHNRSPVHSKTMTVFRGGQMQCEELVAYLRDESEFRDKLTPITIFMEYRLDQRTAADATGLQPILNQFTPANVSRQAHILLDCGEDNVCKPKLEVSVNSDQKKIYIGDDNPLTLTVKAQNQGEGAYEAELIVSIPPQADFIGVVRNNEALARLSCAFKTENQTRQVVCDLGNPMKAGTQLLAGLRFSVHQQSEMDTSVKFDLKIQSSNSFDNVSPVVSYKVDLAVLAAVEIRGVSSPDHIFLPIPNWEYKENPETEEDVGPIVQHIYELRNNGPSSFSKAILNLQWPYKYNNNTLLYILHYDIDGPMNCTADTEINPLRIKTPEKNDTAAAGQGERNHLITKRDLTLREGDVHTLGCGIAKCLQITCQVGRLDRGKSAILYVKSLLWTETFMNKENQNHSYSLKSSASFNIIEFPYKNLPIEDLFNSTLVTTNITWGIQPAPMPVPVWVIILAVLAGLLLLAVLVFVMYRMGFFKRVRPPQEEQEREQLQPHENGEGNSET", "experiment": "cell-based or functional assay", "data": [{"binder": "GRGDSP", "note": "[RGD peptide (GRGDSP)]", "values": [{"measurement": "reduction of transduction of Ad5luc-L1 in NIH3T3 cells compared to control RGE peptide", "value": 40, "unit": "% reduction"}, {"measurement": "reduction of transduction of Ad5luc-L16 in NIH3T3 cells compared to control RGE peptide", "value": 60, "unit": "% reduction"}, {"measurement": "reduction of transduction of Ad5luc-L33 in NIH3T3 cells compared to control RGE peptide", "value": 61, "unit": "% reduction"}]}]}
